Reference: patent publication US20090136516A1 (DUKE UNIVERSITY, published 2009)

Legend:
mouse CD20 [1] = biological target: T1, mouse CD20 (mouse, UniProt P19437 1-291); test: indirect immunofluorescence, flow cytometry, cultured mouse spleen B cells at 37 C; parameters: reference not given here
T1 construct: whole, on cells; Endogenous mouse CD20 on primary B cells; also called cell-surface CD20
T1 sequence (looked up): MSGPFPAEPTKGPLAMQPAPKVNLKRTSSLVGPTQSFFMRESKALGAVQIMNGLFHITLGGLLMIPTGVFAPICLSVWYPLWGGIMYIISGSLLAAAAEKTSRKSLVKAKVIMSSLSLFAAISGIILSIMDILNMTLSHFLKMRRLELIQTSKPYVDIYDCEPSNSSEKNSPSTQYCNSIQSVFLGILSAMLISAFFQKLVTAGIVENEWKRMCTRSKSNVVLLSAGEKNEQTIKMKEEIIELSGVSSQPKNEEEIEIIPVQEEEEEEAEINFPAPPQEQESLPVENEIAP

mouse CD20 [2] = biological target: T1, mouse CD20; test: flow cytometry, mouse spleen CD19+ B cells, mAb at 0.5 µg/mL, isotype-specific secondary antibody
Procedure: Twelve mouse anti-mouse CD20 monoclonal antibodies, with representatives of each IgG isotype, were assessed for their ability to bind B cells and deplete them in vivo. Each monoclonal antibody reacted uniformly with CD19⁺ primary B cells in vitro with characteristic mean fluorescence intensities that were independent of monoclonal antibody isotype (FIG. 6A). When monoclonal antibody reactivity with primary B cells was assessed over a range of monoclonal antibody concentrations, most monoclonal antibodies reached saturating levels of staining when used at concentrations between 1-10 μg/mL (FIG. 6B). […] When all monoclonal antibodies were used at 0.5 μg/mL, each monoclonal antibody reacted uniformly with CD19⁺ primary B cells with characteristic low to high mean fluorescence intensities (FIG. 6C, Table 5). Similar results were obtained using a mouse CD20 cDNA-transfected pre-B cell line with anti-mouse Ig secondary antibody. Based on this analysis, the MB20-1 monoclonal antibody represented monoclonal antibodies with the lowest relative affinity/avidity, while the MB20-18 monoclonal antibody reacted strongly with B cells and stained B cells at the highest levels of all 12 anti-CD20 monoclonal antibodies (Table 5).

B1: MB20-11 monoclonal antibody (antibody, part only; not given: light chain, V domains shown, part only)
VH: EVQLQESGPELVKPGASVKMSCKASGYKITDYNMHWVKQSHGKSLEWIGYIAPYNGGTTYNQKFKGKATLTVNKSSSTAYMELRSLTSEDSAVYYCAGALDYWGQGTSVTVSS
For B1, the increase in antibody binding over time (mouse CD20 [1]) was 97% and the B cell reactivity (mean linear fluorescence intensity) (mean linear fluorescence intensity) (mouse CD20 [2]) was 158.
